From the supplement of paper PMC9170038

Tested on: MS2 coat protein
Experiment: apparent KD of MS2 coat protein; higher = weaker reporter binding
Details: Eterna round: R107
How it was run: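 Designed RNA switches were transcribed on-chip from Illumina sequencing clusters. They were then titrated with SNAP-549-labelled MS2 coat protein (twofold steps, 0.7 or 1.5 nM to 3 µM; 0.8–1.5 h to 10–20 min per step) in 100 mM Tris-HCl pH 7.5, 80 mM KCl, 4 mM MgCl2, without or with constant ligand. Apparent KD is the per-design median of normalised cluster binding-curve fits.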

[1] = input ligand: theophylline 20 uM
[2] = input ligand: theophylline 2 mM
[3] = input ligand: tryptophan 2.4 mM

Sequence	apparent KD of MS2 coat protein (input ligand: arginine 13.2 mM) [nM]	apparent KD of MS2 coat protein [1] [nM]	apparent KD of MS2 coat protein [2] [nM]	apparent KD of MS2 coat protein [3] [nM]	apparent KD of MS2 coat protein (input ligand: none) [nM]
CGAUUUAAGACGGCCGCCACUAUUAAGUAACAAAAUAAACAUGAGGAUCACCCAUGUACAUGGGAUAGGACCGGGUCCAAUAUCG [A2]	34.8	79.7	84.4	–	–
CCUAGCACACAUGAUACCAGCGACAUGAGGAUCACCCAUGUACGGCGUGUAUCGCAAGGUUGCCCUUGGCAGCAUGAUAGUGCUG [Xeerdi]	12.7	24.7	–	14.2	–
AUGCGGUGCGGAAGGAGCGAGUUUGCCUAUUACAUGAGGAUCACCCAUGUGGGUAAUGGGACUCAGGUAGGUCGCCGUUGUCGCA [Same State Arginine B GF 28]	41.9	77.9	65.1	50.1	57.5
GGUGGCUGGACUGAUACCAGCCACCACCGAUAGACCACAUGAGGAUCACCCAUGUUGGGUGGCCCUUGGCAGCAGUCUAGCUGCC [#1 Same State - Theophylline B Attempt #11 (HarryS)]	231	727	–	441	–
ACCUGCGUUUGAUUCUAUCUGACGCAGGUUCGAGGACCGGUACGGCCGCCACUCGGACAUGAGGAUCACCCAUGUUUGACAUGGG [#03 Exclusion Tryptophan A]	27.8	608	186	92.7	121
GCUGCUUUGGGAAGGAGCGCUGCGUUAUCAUGUUGGACAUGAGGAUCACCCAUGUAAAUGUAGCAGGUAGGUCGCUUAGGGCAGC [EAP NP+V+V2 #15]	40.8	46	29.7	37.1	31.8
AUAUAUACAUGAGGAUCACCCAUGUUAUUUCGAGGACCGGUACGGCCGCCACUCGAUAGAGUAGAAGUAACAUUUGUUAGAUGUA [JR_SSTryptoA_Sub011]	19.7	28.3	22	–	–
GCUACAUGAGGAUCACCCAUGUAUGCGAGUCGAGGACCGGUACGGCCGCCACUCGCUUAACAUGAGGAUCACCCAUGUUACUCGC [SSTA DOUBLE!!! :-D #19]	56	106	88.7	–	–
UCGCAUUGCUCAGAUACCAGACAUGAGGAUCACCCAUGUACCAAGGUAACCGAAAGGCAUGUCCCUUGGCAGCUGAGCAAUGCGU [MAT - Exclusion Theophlline B - Mod of Eli - D14]	12.4	21.1	–	13.1	–
ACUCGGUAUGUCUAAUACCGAGAGUAUGAUACCAGUAUGGUGACAUACCCUUGGCAGCAUGGGACAUGAGGAUCACCCAUGUGUU [SSThA NP+V+V2 #10 Same Structure]	119	465	–	588	–
AUGUUUGUGUGAGAUACCAGUGAGGCCACAUGAGGAUCACCCAUGUCCCUCACUCCGGCCCACCCUUGGCAGCUCUUAUAGUAAA [Exclusion Theophylline B GF 25]	12	12.9	–	10.4	–
GGGCCCGGGCGCGAGCCCGGGCCCAUUGAUACCAGUGAAUGUGUGCGCCCUUGGCAGCGAAUCCUAACAUGAGGAUCACCCAUGU [5.E]	16.2	117	50.4	48.3	28.6
UAAUCCGGUCCUCGAUAACAUGGGUGAAUACGAGGACCGGUACGGCCGCCACUCGAUAACAUGAGGAUCACCCAUGUAAUAAUAA [|T'-M'-Trp-Ms2|_Design15]	38.2	111	73.6	–	–
UAAUAAGUACCGGUCCUCAGAUCCUCAUGUCGAGGACCGGUACGGCCGCCACUCGAAACAUGAGGAUCACCCAUGUAAUAAUAAU [#06 Exclusion Tryptophan A]	24.5	52.6	44.3	–	–
AGCACGGUGAUGGUAGCCGGACGCUAGGUACGAGGACCGGUACGGCCGCCACUCGAAGUCCUACGACAUGAGGAUCACCCAUGUA [Same State Trp A GF13]	37.9	59.2	75.2	–	–
GGAACGAUCACUUCUUUAUCUAAGGCGGAUACCAGUCCUCGGUUUGACCCUUGGCAGCCGACAACAUGAGGAUCACCCAUGUUCU [theeternabot_exclusion_MS2_Theo_A_25]	12.5	18.9	–	15.6	–
CAAUUUAGAAAACUAAAUUGAGUGGGUGAACGAGGACCGGUACGGCCGCCACUCGGACAUGAGGAUCACCCAUGUCCAUGUGAAA [AstrosExyTryA#23]	11.3	15.8	16.6	29.2	14.8
AUAAUAAGGUGAUCCUAAGUCGUACCGUAACGAGGACCGGUACGGCCGCCACUCGAACAUGAGGAUCACCCAUGUAUGUACGACA [M'-T'-T-MS2-T'' - Design 6]	28.1	96.1	170	75.9	56.1
ACGACGCAUAGUGAUACCAGCACAACAUGAGGAUCACCCAUGUCACUUAUGUAGUAAUAAUGCCCUUGGCAGCACUAUGCGUCAG [SSTheo B #1]	40.7	66.3	–	52.6	–
UAUCGUCAGACGGCCGCCACUAGAACAUGAGGAUCACCCAUGUACCCGGUCCAUUCCUCAUUAACUAGGACCGGGUCUGACGAAU [(Trp1)-(Ms2)-(T)'-(M)'-(Trp2)_Design13]	88.3	129	131	–	–
UGCUACAUGAGGAUCACCCAUGUGGGUGAUACCAGCAUUCGUUAAUGCCCUUGGCAGCGCAGCCGAACCAUUCAUUCGGCAGAUC [Laxeor]	36.2	214	382	328	125
